B1: OsMKK10.2 promoter W-box probe, 48 bp (MKK10.2-biotin-F1) (dsDNA)
DNA 1: CGGTTTGGGAACCGACTTAGGGCGGTCAAGGCGCGAGCTGGCGCTCCG
DNA 2: CGGAGCGCCAGCTCGCGCCTTGACCGCCCTAAGTCGGTTCCCAAACCG
B2: OsHKT1;5 (SKC1) promoter W-box probe, 48 bp (SKC1-biotin-F1) (dsDNA)
DNA 1: ATAAGATGTTTTTGACTTTGGTCAAAGTCAAACTGTTTATGTTTGACC
DNA 2: GGTCAAACATAAACAGTTTGACTTTGACCAAAGTCAAAAACATCTTAT

Molecular target: MBP-OsWRKY53 (Oryza sativa (rice), UniProt A7BEY7 1-487)
Assay: EMSA; 60 fmol probe, 2 ug protein; EMSA: 20 uL, 25 C 30 min, LightShift kit buffer (composition not given), 6% native PAGE, 0.5x TBE pH 8.3, 4 C; SPR: CM5 chip with anti-biotin antibody capturing biotin-oligo, 10 uL/min, reaction buffer composition and temperature not given
Conditions: protein: recombinant; tags: MBP (N-terminal, pMal-c2x); label: biotin

MBP-OsWRKY53, sequence (A7BEY7 entry or part of it): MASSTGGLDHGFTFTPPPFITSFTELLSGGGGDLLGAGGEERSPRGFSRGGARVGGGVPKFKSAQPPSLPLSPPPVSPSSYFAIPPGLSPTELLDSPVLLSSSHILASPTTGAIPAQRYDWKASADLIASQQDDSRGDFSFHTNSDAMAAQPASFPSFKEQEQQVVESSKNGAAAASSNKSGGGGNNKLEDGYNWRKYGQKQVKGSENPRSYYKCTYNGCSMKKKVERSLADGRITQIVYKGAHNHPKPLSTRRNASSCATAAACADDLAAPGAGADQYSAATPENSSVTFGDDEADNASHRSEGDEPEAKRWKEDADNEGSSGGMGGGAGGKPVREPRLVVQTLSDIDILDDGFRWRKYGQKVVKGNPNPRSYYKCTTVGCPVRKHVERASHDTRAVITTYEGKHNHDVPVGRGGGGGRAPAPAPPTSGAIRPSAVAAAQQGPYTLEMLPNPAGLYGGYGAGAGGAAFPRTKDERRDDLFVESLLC

| Binder | binding result |
| --- | --- |
| B1 | binds |
| B2 | binds |
